Consider 26 molecules from patent publication US20090011988A1 (Genentech, published 2009).

Positions of bridges follow the written chain, without caps; N, C: chain ends. No end group written: not given here.

The chains are these.
T1: human IGFBP-1 (human, UniProt P08833 26-259)
T1 sequence (looked up): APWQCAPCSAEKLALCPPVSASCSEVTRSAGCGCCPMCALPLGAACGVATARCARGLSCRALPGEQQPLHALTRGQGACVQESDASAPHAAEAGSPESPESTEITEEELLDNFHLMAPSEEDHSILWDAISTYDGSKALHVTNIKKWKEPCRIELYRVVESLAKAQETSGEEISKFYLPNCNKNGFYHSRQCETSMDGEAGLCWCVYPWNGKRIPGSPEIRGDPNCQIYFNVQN

B1: BP3-27 (peptide)
peptide: EVCWPVAEWYLCN
modifications: disulfide 3-12
B2: BP3-24 (peptide)
peptide: WPVAEWYLCN
notes: only one Cys, no intact disulfide
B3: BP3-39 (peptide)
peptide: SEEVCWPVAEWYLCN-NH2
modifications: disulfide 5-14; N-terminus assumed
SMILES: CC(C)C[C@@H]1NC(=O)[C@H](Cc2ccc(O)cc2)NC(=O)[C@H](Cc2c[nH]c3ccccc23)NC(=O)[C@H](CCC(=O)O)NC(=O)[C@H](C)NC(=O)[C@H](C(C)C)NC(=O)[C@@H]2CCCN2C(=O)[C@H](Cc2c[nH]c3ccccc23)NC(=O)[C@@H](NC(=O)[C@@H](NC(=O)[C@H](CCC(=O)O)NC(=O)[C@H](CCC(=O)O)NC(=O)[C@@H](N)CO)C(C)C)CSSC[C@@H](C(=O)N[C@@H](CC(N)=O)C(N)=O)NC1=O
B4: BP3-28 (peptide)
peptide: EEVCWPVAEWYLCN
modifications: disulfide 4-13
B5: BP3-40 (peptide)
peptide: Ac-SEEVCWPVAEWYLCN-NH2
modifications: disulfide 5-14
SMILES: CC(=O)N[C@@H](CO)C(=O)N[C@@H](CCC(=O)O)C(=O)N[C@@H](CCC(=O)O)C(=O)N[C@H](C(=O)N[C@H]1CSSC[C@@H](C(=O)N[C@@H](CC(N)=O)C(N)=O)NC(=O)[C@H](CC(C)C)NC(=O)[C@H](Cc2ccc(O)cc2)NC(=O)[C@H](Cc2c[nH]c3ccccc23)NC(=O)[C@H](CCC(=O)O)NC(=O)[C@H](C)NC(=O)[C@H](C(C)C)NC(=O)[C@@H]2CCCN2C(=O)[C@H](Cc2c[nH]c3ccccc23)NC1=O)C(C)C
B6: BP3-41 (peptide)
peptide: GPETCWPVAEWYLCN
modifications: disulfide 5-14
B7: BP3-30 (peptide)
peptide: ASEEVCWPVAEWYLCN
modifications: disulfide 6-15
B8: 4D3.3P (peptide)
peptide: ASEEVCWPVAEWYLCNMWGR
modifications: disulfide 6-15
B9: BP3-25 (peptide)
peptide: CWPVAEWYLCN
modifications: disulfide 1-10
B10: BP1-21A (peptide)
peptide: SEVGCRAGPLQWLCEKYFSTY-NH2
modifications: disulfide 5-14; N-terminus assumed
SMILES: CC(C)C[C@@H]1NC(=O)[C@H](Cc2c[nH]c3ccccc23)NC(=O)[C@H](CCC(N)=O)NC(=O)[C@H](CC(C)C)NC(=O)[C@@H]2CCCN2C(=O)CNC(=O)[C@H](C)NC(=O)[C@H](CCCNC(=N)N)NC(=O)[C@@H](NC(=O)CNC(=O)[C@@H](NC(=O)[C@H](CCC(=O)O)NC(=O)[C@@H](N)CO)C(C)C)CSSC[C@@H](C(=O)N[C@@H](CCC(=O)O)C(=O)N[C@@H](CCCCN)C(=O)N[C@@H](Cc2ccc(O)cc2)C(=O)N[C@@H](Cc2ccccc2)C(=O)N[C@@H](CO)C(=O)N[C@H](C(=O)N[C@@H](Cc2ccc(O)cc2)C(N)=O)[C@@H](C)O)NC1=O
notes: also called Y135C
B11: BP1-20 (peptide)
peptide: EARVCRAGPLQWLCEKYF-NH2
modifications: disulfide 5-14; N-terminus assumed
SMILES: CC(C)C[C@@H]1NC(=O)[C@H](Cc2c[nH]c3ccccc23)NC(=O)[C@H](CCC(N)=O)NC(=O)[C@H](CC(C)C)NC(=O)[C@@H]2CCCN2C(=O)CNC(=O)[C@H](C)NC(=O)[C@H](CCCNC(=N)N)NC(=O)[C@@H](NC(=O)[C@@H](NC(=O)[C@H](CCCNC(=N)N)NC(=O)[C@H](C)NC(=O)[C@@H](N)CCC(=O)O)C(C)C)CSSC[C@@H](C(=O)N[C@@H](CCC(=O)O)C(=O)N[C@@H](CCCCN)C(=O)N[C@@H](Cc2ccc(O)cc2)C(=O)N[C@@H](Cc2ccccc2)C(N)=O)NC1=O
B12: BP1-40 (peptide)
peptide: GQQSCRAGPLQWLCEKYFSTY
modifications: disulfide 5-14
notes: also called Y0791A
B13: (i+8)B (peptide)
peptide: Ac-RPLEWLAEKYFE
modifications: linker 4-12 via 1,5‑diaminopentane
B14: (i+7)A (peptide)
peptide: Ac-CRAGPLQELCEKYAE
modifications: disulfide 1-10 (inferred); linker 8-15 via 1,5‑diaminopentane
B15: (i+8)C (peptide)
peptide: Ac-RAGPLEWLAEKYFE
modifications: linker 6-14 via 1,5‑diaminopentane
B16: (i+7)C (peptide)
peptide: Ac-PLEWLAEKYEG
modifications: linker 3-10 via 1,5‑diaminopentane
B17: (i+7)D (peptide)
peptide: Ac-RAGPLEWLAEKYEG
modifications: linker 6-13 via 1,5‑diaminopentane
B18: BP3-02-ox (peptide)
peptide: DMGVCADGPWMYVCEWTE
modifications: disulfide 5-14
B19: BP3-4D3.11 (peptide)
peptide: VAWEVCWDRHDQGYICTTDS
modifications: disulfide 6-16
B20: BP3-08 (peptide)
peptide: TVANCDCYMPLCLCYDSD
modifications: disulfide 7-12; disulfide 5-14 (inferred)
B21: BP-24 (peptide)
peptide: WFKTVCYEWEDEVQCYTLEEG-NH2
modifications: disulfide 6-15; N-terminus assumed
SMILES: CC(C)C[C@H](NC(=O)[C@@H](NC(=O)[C@H](Cc1ccc(O)cc1)NC(=O)[C@@H]1CSSC[C@H](NC(=O)[C@@H](NC(=O)[C@@H](NC(=O)[C@H](CCCCN)NC(=O)[C@H](Cc2ccccc2)NC(=O)[C@@H](N)Cc2c[nH]c3ccccc23)[C@@H](C)O)C(C)C)C(=O)N[C@@H](Cc2ccc(O)cc2)C(=O)N[C@@H](CCC(=O)O)C(=O)N[C@@H](Cc2c[nH]c3ccccc23)C(=O)N[C@@H](CCC(=O)O)C(=O)N[C@@H](CC(=O)O)C(=O)N[C@@H](CCC(=O)O)C(=O)N[C@@H](C(C)C)C(=O)N[C@@H](CCC(N)=O)C(=O)N1)[C@@H](C)O)C(=O)N[C@@H](CCC(=O)O)C(=O)N[C@@H](CCC(=O)O)C(=O)NCC(N)=O
notes: also called peptide of phage clone 4D3.5
B22: BP-23 (peptide)
peptide: ELDGWVCIKVGEQNLCYLAEG-NH2
modifications: disulfide 7-16; N-terminus assumed
SMILES: CC[C@H](C)[C@@H]1NC(=O)[C@@H](NC(=O)[C@@H](NC(=O)[C@H](Cc2c[nH]c3ccccc23)NC(=O)CNC(=O)[C@H](CC(=O)O)NC(=O)[C@H](CC(C)C)NC(=O)[C@@H](N)CCC(=O)O)C(C)C)CSSC[C@@H](C(=O)N[C@@H](Cc2ccc(O)cc2)C(=O)N[C@@H](CC(C)C)C(=O)N[C@@H](C)C(=O)N[C@@H](CCC(=O)O)C(=O)NCC(N)=O)NC(=O)[C@H](CC(C)C)NC(=O)[C@H](CC(N)=O)NC(=O)[C@H](CCC(N)=O)NC(=O)[C@H](CCC(=O)O)NC(=O)CNC(=O)[C@H](C(C)C)NC(=O)[C@H](CCCCN)NC1=O
notes: also called peptide of phage clone 4C3.2
B23: BP3-06 (peptide)
peptide: TGVDCQCGPVHCVCMDWA
modifications: disulfide 7-12; disulfide 5-14 (inferred)
B24: BP3-16 (peptide)
peptide: VCWPVAEWYLCNMWG
modifications: disulfide 2-11
B25: BP3-4B3.3 (peptide)
peptide: EESECFEGPGYVICGLVG
modifications: disulfide 5-14
B26: BP3-4D3.11DEL (peptide)
peptide: AWEVCWDRHQGYICTTDS
modifications: disulfide 5-14

T2 sequence (P17936 28-291 limits assumed): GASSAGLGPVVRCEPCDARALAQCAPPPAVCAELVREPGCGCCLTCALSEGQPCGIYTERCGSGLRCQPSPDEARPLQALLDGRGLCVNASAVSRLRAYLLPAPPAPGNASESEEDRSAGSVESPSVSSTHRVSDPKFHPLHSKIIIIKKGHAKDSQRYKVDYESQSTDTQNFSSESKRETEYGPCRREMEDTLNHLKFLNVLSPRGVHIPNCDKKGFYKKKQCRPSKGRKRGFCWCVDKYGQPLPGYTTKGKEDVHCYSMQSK

One assay addresses T2, recombinant human IGFBP-3 (human, UniProt P17936 28-291). The assay is described as follows: BIAcore competition, IGFBP-3 to IGF-1. The method, then: IGF-1 was immobilized on a dextran chip for inhibition assays using a BIACORE™ 2000 surface-plasmon-resonance device (BIAcore, Inc., Piscataway, N.J.) to measure free binding protein. IGF-1 was biotinylated as described above, and injected over a chip to which streptavidin had been coupled (BIAcore, Inc.) to give 400 to 800 RU (response units) of immobilized IGF-1. […] After incubation for >1 hour at room temperature, an aliquot of 20:L was injected at a flow rate of 20:L/min over the IGF-1 chip.
For orientation: Surface plasmon resonance follows binding to a sensor surface in real time, without labels.
As for B1, the IC50 is 2.8 µM. B2: the IC50 was greater than 1000 µM. On the same count and under the same terms, next, B3: 0.66 µM. Same read-out and setting: next, B4: 5.4 µM; B5: 0.66 µM. Take B6: the IC50 stood at 4 µM. With B7, the IC50 is 5.6 µM. Same read-out and setting: next, B8: 5.6 µM. On to B9, for which the 50% inhibitory concentration (IC50) is 46 µM.

For the next assay, the target named is T1, human IGFBP-1. The experiment in a line: BIAcore kinetics, IGFBP-1 coupled to chip. As to the method: For each dilution of peptides, a global fit of the sensorgram data was performed using a 1:1 Langmuir binding model.
The molecule B10 displayed a Kd of 0.041 µM.

The molecule B11 registered a dissociation constant Kd of 0.033 µM.

In the case of B12, binding was put at a Kd of 0.027 µM.

For a further assay, the target named is T1, human IGFBP-1. The assay is described as follows: BIAcore inhibition assay. As to the method: Peptides were assayed in a BIAcore™ assay as described in WO 98/45427, supra.
Take B13: the “fold potency reduction, IC50 (BP1-01)/IC50 (mut)” value (from here on “fold potency reduction, IC50”) is 7.7.

For the molecule B14, the “fold potency reduction, IC50” value stood at 40.

Turning to B15, the “fold potency reduction, IC50” value was 5.9. With B16, the “fold potency reduction, IC50” value is 20.

For the molecule B17, the “fold potency reduction, IC50” value amounted to 7.7.

The target in the next assay is T2, recombinant human IGFBP-3. The assay is described as follows: BIAcore competition, IGFBP-3 to immobilized IGF-1. As to the method:
IGF-1 was immobilized on a dextran chip for inhibition assays using a BIACORE™ 2000 surface-plasmon-resonance device (BIAcore, Inc., Piscataway, N.J.) to measure free binding protein. IGF-1 was biotinylated as described above, and injected over a chip to which streptavidin had been coupled (BIAcore, Inc.) to give 400 to 800 RU (response units) of immobilized IGF-1. […] After incubation for >1 hour at room temperature, an aliquot of 20:L was injected at a flow rate of 20:L/min over the IGF-1 chip. […]
In the case of B18, the half-inhibitory concentration (IC50) is 12 µM. Consider B19, for which the IC50 was less than 10 µM.

As to B20, the IC50 turned out to be 15 µM.

Turning to B21, the IC50 is 100 to 300 µM. Same read-out and setting: next, B22: 220 µM. B23: the IC50 was found to be 5 µM. For the molecule B24, the IC50 stood at 30 µM. The same measure, in the same setting: the same measure for B25: 80 µM; for B26: 80 µM.

The IC50 is the midpoint of a concentration-inhibition curve. Usually Kd stands for the constant that tells how readily two partners part at equilibrium.
